Numbered stars: 1 amine (or outer) side, 2 acyl side, 3 side chain; on linkers, the order of the positions; unused ones are H or OH. Bridge positions count the residues as written; N and C are the ends. Side chains are listed from the residue outwards. Ends that are not written are not given here. * marks the point of attachment. C20 diacid = O=C(O)CCCCCCCCCCCCCCCCCCC(=O)*; γGlu = O=C(O)[C@H](CCC(=O)[*:2])N[*:1]; AEEA = NCCOCCOCC(=O)O
T1: human calcitonin receptor (human, UniProt P30988 25-474)
T1 sequence (looked up): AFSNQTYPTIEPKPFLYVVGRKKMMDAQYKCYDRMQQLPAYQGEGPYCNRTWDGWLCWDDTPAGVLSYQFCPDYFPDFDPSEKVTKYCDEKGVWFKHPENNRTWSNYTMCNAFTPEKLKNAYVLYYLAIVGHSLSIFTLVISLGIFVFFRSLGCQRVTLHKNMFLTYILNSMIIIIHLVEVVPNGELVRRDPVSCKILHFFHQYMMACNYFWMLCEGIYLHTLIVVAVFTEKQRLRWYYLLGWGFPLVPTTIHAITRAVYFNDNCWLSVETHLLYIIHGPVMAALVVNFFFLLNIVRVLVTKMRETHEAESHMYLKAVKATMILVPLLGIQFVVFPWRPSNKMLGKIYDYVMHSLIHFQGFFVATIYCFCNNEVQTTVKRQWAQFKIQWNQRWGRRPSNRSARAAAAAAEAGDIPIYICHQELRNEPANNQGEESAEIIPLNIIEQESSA

T2: human amylin receptor (amylin 3(a) receptor: human calcitonin receptor plus RAMP-3) (human, UniProt P30988 25-474; O60896 24-148, limits assumed)
T2 sequence (looked up) 1: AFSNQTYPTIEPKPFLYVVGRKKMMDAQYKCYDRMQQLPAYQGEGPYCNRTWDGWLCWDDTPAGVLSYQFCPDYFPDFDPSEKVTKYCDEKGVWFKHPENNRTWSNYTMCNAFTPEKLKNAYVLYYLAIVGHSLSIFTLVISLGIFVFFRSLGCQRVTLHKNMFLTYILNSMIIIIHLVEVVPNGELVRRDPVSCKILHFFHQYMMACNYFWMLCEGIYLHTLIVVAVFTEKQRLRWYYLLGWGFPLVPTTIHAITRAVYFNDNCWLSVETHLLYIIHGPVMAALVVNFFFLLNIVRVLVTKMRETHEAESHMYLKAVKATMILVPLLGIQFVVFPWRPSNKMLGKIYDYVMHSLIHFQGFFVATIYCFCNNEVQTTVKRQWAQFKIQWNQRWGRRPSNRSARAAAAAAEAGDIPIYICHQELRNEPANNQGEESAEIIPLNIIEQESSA
T2 sequence (looked up) 2: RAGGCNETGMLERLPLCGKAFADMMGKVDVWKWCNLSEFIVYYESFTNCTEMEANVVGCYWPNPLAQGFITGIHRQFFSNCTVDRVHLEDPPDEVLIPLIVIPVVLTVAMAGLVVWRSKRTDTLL


Tests used:
[1] = biological target: T1, human calcitonin receptor; assay: cell-based or functional assay
[2] = biological target: T2, human amylin receptor (amylin 3(a) …); assay: cell-based or functional assay

| Binder | hCTR funct. EC50 [1] [nM] | Ratio hCT/hAmylin funct. [2] [ratio] | hAmylin-R funct. EC50 [2] [nM] |
| --- | --- | --- | --- |
| {C20 diacid-γGlu}-KCNTATCATQRLAEFLRHSSPNFGAIPSSTNVGSRTY-NH2 (disulfide 2-7; SMILES CC[C@H](C)[C@H](NC(=O)[C@H](C)NC(=O)CNC(=O)[C@H](Cc1ccccc1)NC(=O)[C@H](CC(N)=O)NC(=O)[C@@H]1CCCN1C(=O)[C@H](CO)NC(=O)[C@H](CO)NC(=O)[C@H](Cc1c[nH]cn1)NC(=O)[C@H](CCCNC(=N)N)NC(=O)[C@H](CC(C)C)NC(=O)[C@H](Cc1ccccc1)NC(=O)[C@H](CCC(=O)O)NC(=O)[C@H](C)NC(=O)[C@H](CC(C)C)NC(=O)[C@H](CCCNC(=N)N)NC(=O)[C@H](CCC(N)=O)NC(=O)[C@@H](NC(=O)[C@H](C)NC(=O)[C@@H]1CSSC[C@H](NC(=O)[C@H](CCCCN)NC(=O)CC[C@H](NC(=O)CCCCCCCCCCCCCCCCCCC(=O)O)C(=O)O)C(=O)N[C@@H](CC(N)=O)C(=O)N[C@@H]([C@@H](C)O)C(=O)N[C@@H](C)C(=O)N[C@@H]([C@@H](C)O)C(=O)N1)[C@@H](C)O)C(=O)N1CCC[C@H]1C(=O)N[C@@H](CO)C(=O)N[C@@H](CO)C(=O)N[C@H](C(=O)N[C@@H](CC(N)=O)C(=O)N[C@H](C(=O)NCC(=O)N[C@@H](CO)C(=O)N[C@@H](CCCNC(=N)N)C(=O)N[C@H](C(=O)N[C@@H](Cc1ccc(O)cc1)C(N)=O)[C@@H](C)O)C(C)C)[C@@H](C)O, Synthetic acylated analogue of human amylin; also called compound 16) | 2.21 | 6.1 | 0.363 |
| {C20 diacid-γGlu}-KCNTATCATQRLAEFLRHSSPNFGAIPSSTPVGSNTY-NH2 (disulfide 2-7; SMILES CC[C@H](C)[C@H](NC(=O)[C@H](C)NC(=O)CNC(=O)[C@H](Cc1ccccc1)NC(=O)[C@H](CC(N)=O)NC(=O)[C@@H]1CCCN1C(=O)[C@H](CO)NC(=O)[C@H](CO)NC(=O)[C@H](Cc1c[nH]cn1)NC(=O)[C@H](CCCNC(=N)N)NC(=O)[C@H](CC(C)C)NC(=O)[C@H](Cc1ccccc1)NC(=O)[C@H](CCC(=O)O)NC(=O)[C@H](C)NC(=O)[C@H](CC(C)C)NC(=O)[C@H](CCCNC(=N)N)NC(=O)[C@H](CCC(N)=O)NC(=O)[C@@H](NC(=O)[C@H](C)NC(=O)[C@@H]1CSSC[C@H](NC(=O)[C@H](CCCCN)NC(=O)CC[C@H](NC(=O)CCCCCCCCCCCCCCCCCCC(=O)O)C(=O)O)C(=O)N[C@@H](CC(N)=O)C(=O)N[C@@H]([C@@H](C)O)C(=O)N[C@@H](C)C(=O)N[C@@H]([C@@H](C)O)C(=O)N1)[C@@H](C)O)C(=O)N1CCC[C@H]1C(=O)N[C@@H](CO)C(=O)N[C@@H](CO)C(=O)N[C@H](C(=O)N1CCC[C@H]1C(=O)N[C@H](C(=O)NCC(=O)N[C@@H](CO)C(=O)N[C@@H](CC(N)=O)C(=O)N[C@H](C(=O)N[C@@H](Cc1ccc(O)cc1)C(N)=O)[C@@H](C)O)C(C)C)[C@@H](C)O, Synthetic acylated analogue of human amylin; also called compound 31) | 0.717 | 6.4 | 0.112 |
| {C20 diacid-γGlu}-KCNTATCATQRLAHFLRHSSPNFGAIPSSTNVGSETY-NH2 (disulfide 2-7; SMILES CC[C@H](C)[C@H](NC(=O)[C@H](C)NC(=O)CNC(=O)[C@H](Cc1ccccc1)NC(=O)[C@H](CC(N)=O)NC(=O)[C@@H]1CCCN1C(=O)[C@H](CO)NC(=O)[C@H](CO)NC(=O)[C@H](Cc1c[nH]cn1)NC(=O)[C@H](CCCNC(=N)N)NC(=O)[C@H](CC(C)C)NC(=O)[C@H](Cc1ccccc1)NC(=O)[C@H](Cc1c[nH]cn1)NC(=O)[C@H](C)NC(=O)[C@H](CC(C)C)NC(=O)[C@H](CCCNC(=N)N)NC(=O)[C@H](CCC(N)=O)NC(=O)[C@@H](NC(=O)[C@H](C)NC(=O)[C@@H]1CSSC[C@H](NC(=O)[C@H](CCCCN)NC(=O)CC[C@H](NC(=O)CCCCCCCCCCCCCCCCCCC(=O)O)C(=O)O)C(=O)N[C@@H](CC(N)=O)C(=O)N[C@@H]([C@@H](C)O)C(=O)N[C@@H](C)C(=O)N[C@@H]([C@@H](C)O)C(=O)N1)[C@@H](C)O)C(=O)N1CCC[C@H]1C(=O)N[C@@H](CO)C(=O)N[C@@H](CO)C(=O)N[C@H](C(=O)N[C@@H](CC(N)=O)C(=O)N[C@H](C(=O)NCC(=O)N[C@@H](CO)C(=O)N[C@@H](CCC(=O)O)C(=O)N[C@H](C(=O)N[C@@H](Cc1ccc(O)cc1)C(N)=O)[C@@H](C)O)C(C)C)[C@@H](C)O, Synthetic acylated analogue of human amylin; also called compound 30) | 1.68 | 12.6 | 0.134 |
| KCNTATCATQRLAEFLRHSSPNFGAIPSSTNVGSNTY (C20 diacid-gGlu on the alpha amino group of the N-terminal residue; disulfide bridge Cys2-Cys7; C-terminal amide, Synthetic acylated analogue of human amylin; also called compound 9) [N^α1-[(4S)-4-carboxy-4-(19-carboxynonadecanoylamino)butanoyl]-[Glu14,Arg17,Pro21,Pro27]-h-amylin] | 1.29 | 7.4 | 0.175 |
| K([AEEA-AEEA-γGlu-C20 diacid])CNTATCATQRLANFLRHSSPNFGAIPSSTNVGSETY-NH2 (disulfide 2-7; N-terminus assumed; SMILES CC[C@H](C)[C@H](NC(=O)[C@H](C)NC(=O)CNC(=O)[C@H](Cc1ccccc1)NC(=O)[C@H](CC(N)=O)NC(=O)[C@@H]1CCCN1C(=O)[C@H](CO)NC(=O)[C@H](CO)NC(=O)[C@H](Cc1c[nH]cn1)NC(=O)[C@H](CCCNC(=N)N)NC(=O)[C@H](CC(C)C)NC(=O)[C@H](Cc1ccccc1)NC(=O)[C@H](CC(N)=O)NC(=O)[C@H](C)NC(=O)[C@H](CC(C)C)NC(=O)[C@H](CCCNC(=N)N)NC(=O)[C@H](CCC(N)=O)NC(=O)[C@@H](NC(=O)[C@H](C)NC(=O)[C@@H]1CSSC[C@H](NC(=O)[C@@H](N)CCCCNC(=O)COCCOCCNC(=O)COCCOCCNC(=O)CC[C@H](NC(=O)CCCCCCCCCCCCCCCCCCC(=O)O)C(=O)O)C(=O)N[C@@H](CC(N)=O)C(=O)N[C@@H]([C@@H](C)O)C(=O)N[C@@H](C)C(=O)N[C@@H]([C@@H](C)O)C(=O)N1)[C@@H](C)O)C(=O)N1CCC[C@H]1C(=O)N[C@@H](CO)C(=O)N[C@@H](CO)C(=O)N[C@H](C(=O)N[C@@H](CC(N)=O)C(=O)N[C@H](C(=O)NCC(=O)N[C@@H](CO)C(=O)N[C@@H](CCC(=O)O)C(=O)N[C@H](C(=O)N[C@@H](Cc1ccc(O)cc1)C(N)=O)[C@@H](C)O)C(C)C)[C@@H](C)O, Synthetic acylated analogue of human amylin; also called compound 25) | 10 | 46.2 | 0.217 |
| K([AEEA-γGlu-C20 diacid])CNTATCATQRLANFLRHSSPNFGAIPSPTPVGSNTY-NH2 (disulfide 2-7; N-terminus assumed; SMILES CC[C@H](C)[C@H](NC(=O)[C@H](C)NC(=O)CNC(=O)[C@H](Cc1ccccc1)NC(=O)[C@H](CC(N)=O)NC(=O)[C@@H]1CCCN1C(=O)[C@H](CO)NC(=O)[C@H](CO)NC(=O)[C@H](Cc1c[nH]cn1)NC(=O)[C@H](CCCNC(=N)N)NC(=O)[C@H](CC(C)C)NC(=O)[C@H](Cc1ccccc1)NC(=O)[C@H](CC(N)=O)NC(=O)[C@H](C)NC(=O)[C@H](CC(C)C)NC(=O)[C@H](CCCNC(=N)N)NC(=O)[C@H](CCC(N)=O)NC(=O)[C@@H](NC(=O)[C@H](C)NC(=O)[C@@H]1CSSC[C@H](NC(=O)[C@@H](N)CCCCNC(=O)COCCOCCNC(=O)CC[C@H](NC(=O)CCCCCCCCCCCCCCCCCCC(=O)O)C(=O)O)C(=O)N[C@@H](CC(N)=O)C(=O)N[C@@H]([C@@H](C)O)C(=O)N[C@@H](C)C(=O)N[C@@H]([C@@H](C)O)C(=O)N1)[C@@H](C)O)C(=O)N1CCC[C@H]1C(=O)N[C@@H](CO)C(=O)N1CCC[C@H]1C(=O)N[C@H](C(=O)N1CCC[C@H]1C(=O)N[C@H](C(=O)NCC(=O)N[C@@H](CO)C(=O)N[C@@H](CC(N)=O)C(=O)N[C@H](C(=O)N[C@@H](Cc1ccc(O)cc1)C(N)=O)[C@@H](C)O)C(C)C)[C@@H](C)O, Synthetic acylated analogue of human amylin; also called compound 54) | 0.987 | 9.6 | 0.103 |
| K([AEEA-γGlu-C20 diacid])CNTATCATQRLANFLRHSSPNFGAIPSSTNVGSETY-NH2 (disulfide 2-7; N-terminus assumed; SMILES CC[C@H](C)[C@H](NC(=O)[C@H](C)NC(=O)CNC(=O)[C@H](Cc1ccccc1)NC(=O)[C@H](CC(N)=O)NC(=O)[C@@H]1CCCN1C(=O)[C@H](CO)NC(=O)[C@H](CO)NC(=O)[C@H](Cc1c[nH]cn1)NC(=O)[C@H](CCCNC(=N)N)NC(=O)[C@H](CC(C)C)NC(=O)[C@H](Cc1ccccc1)NC(=O)[C@H](CC(N)=O)NC(=O)[C@H](C)NC(=O)[C@H](CC(C)C)NC(=O)[C@H](CCCNC(=N)N)NC(=O)[C@H](CCC(N)=O)NC(=O)[C@@H](NC(=O)[C@H](C)NC(=O)[C@@H]1CSSC[C@H](NC(=O)[C@@H](N)CCCCNC(=O)COCCOCCNC(=O)CC[C@H](NC(=O)CCCCCCCCCCCCCCCCCCC(=O)O)C(=O)O)C(=O)N[C@@H](CC(N)=O)C(=O)N[C@@H]([C@@H](C)O)C(=O)N[C@@H](C)C(=O)N[C@@H]([C@@H](C)O)C(=O)N1)[C@@H](C)O)C(=O)N1CCC[C@H]1C(=O)N[C@@H](CO)C(=O)N[C@@H](CO)C(=O)N[C@H](C(=O)N[C@@H](CC(N)=O)C(=O)N[C@H](C(=O)NCC(=O)N[C@@H](CO)C(=O)N[C@@H](CCC(=O)O)C(=O)N[C@H](C(=O)N[C@@H](Cc1ccc(O)cc1)C(N)=O)[C@@H](C)O)C(C)C)[C@@H](C)O, Synthetic acylated analogue of human amylin; also called compound 26) | 6.34 | 29.9 | 0.212 |
| K([AEEA-γGlu-C20 diacid])CNTATCATQRLANFLRHSSPNFGAIPPSTPVGSNTY-NH2 (disulfide 2-7, Synthetic acylated analogue of human amylin; also called compound 53) | 0.625 | 9.8 | 0.064 |

Reference: US20140087995A1 (published 2014)
